Assay results reported in patent publication US20090149339A1 (published 2009).
Ends that are not written are not given here. * marks the point of attachment. Biotin = O=C1N[C@H]2[C@H](CS[C@H]2CCCCC(=O)*)N1

What follows are binders tested against GST-AF6 PDZ domain fusion protein (af-6 protein AA985-1077; PDZ domain 1 of 1) (UniProt P08515 1-218 = GST) (assay: A/G assays).
Chain of GST-AF6 PDZ domain fusion protein (af-6 protein AA985-1077; PDZ domain 1 of 1) (P08515 1-218, tags or fused parts left off): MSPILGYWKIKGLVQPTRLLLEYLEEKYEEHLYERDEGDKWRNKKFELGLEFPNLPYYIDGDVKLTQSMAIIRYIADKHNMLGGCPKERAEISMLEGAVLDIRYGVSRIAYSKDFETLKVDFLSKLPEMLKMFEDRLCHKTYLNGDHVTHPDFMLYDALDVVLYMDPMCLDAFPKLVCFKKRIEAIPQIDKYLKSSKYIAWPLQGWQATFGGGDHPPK

| Binder | binding result |
| --- | --- |
| Biotin-TSGTGHNQTRALRASESGI [CD97 (CD55L) C-terminal PL peptide AA14L, biotinylated] | no binding |
| Biotin-SPQPDSTDNDDYDDISAA [CD6 C-terminal PL peptide AA6L, biotinylated] | no binding |

These binders were tested against T1, GST-TAX43 PDZ domain fusion protein (human tax interaction protein 43 AA15-85; PDZ domain 1 of 1) (human, UniProt P08515 1-218 = GST) (assay: A/G assays).
T1 construct: also called TX 43
T1 sequence (P08515 1-218, tags or fused parts left off): as above

| Binder | binding result |
| --- | --- |
| Biotin-TSGTGHNQTRALRASESGI [CD97 (CD55L) C-terminal PL peptide AA14L, biotinylated] | no binding |
| Biotin-SPQPDSTDNDDYDDISAA [CD6 C-terminal PL peptide AA6L, biotinylated] | no binding |

Each binder was assayed against T2, GST-MPP2 PDZ domain fusion protein (maguk p55 subfamily member 2 (DLG2) AA185-273; PDZ domain 1 of 1) (UniProt P08515 1-218 = GST) (assay: A/G assays).
T2 construct: also called MMP2
T2 sequence (P08515 1-218, tags or fused parts left off): as above

| Binder | binding result |
| --- | --- |
| Biotin-TSGTGHNQTRALRASESGI [CD97 (CD55L) C-terminal PL peptide AA14L, biotinylated] | no binding |
| Biotin-SPQPDSTDNDDYDDISAA [CD6 C-terminal PL peptide AA6L, biotinylated] | no binding |

The binders below were run against T3, GST-CBP PDZ domain fusion protein (Cytohesin binding protein HE AA85-175; PDZ domain 1 of 1) (UniProt P08515 1-218 = GST) (assay: A/G assays).
T3 construct: also called Prot
T3 sequence (P08515 1-218, tags or fused parts left off): as above

| Binder | binding result |
| --- | --- |
| Biotin-TSGTGHNQTRALRASESGI [CD97 (CD55L) C-terminal PL peptide AA14L, biotinylated] | no binding |
| Biotin-SPQPDSTDNDDYDDISAA [CD6 C-terminal PL peptide AA6L, biotinylated] | no binding |

These binders were tested against GST-prIL16 PDZ domain fusion protein (putative interleukin 16 precursor AA170-383; PDZ domains 1-2 of 2) (UniProt P08515 1-218 = GST) (assay: A/G assays).
Chain of GST-prIL16 PDZ domain fusion protein (putative interleukin 16 precursor AA170-383; PDZ domains 1-2 of 2) (P08515 1-218, tags or fused parts left off): as above

| Binder | binding result |
| --- | --- |
| Biotin-TSGTGHNQTRALRASESGI [CD97 (CD55L) C-terminal PL peptide AA14L, biotinylated] | no binding |
| Biotin-SPQPDSTDNDDYDDISAA [CD6 C-terminal PL peptide AA6L, biotinylated] | no binding |

Each binder was assayed against GST-LIMK2 PDZ domain fusion protein (human LIM domain kinase 2 AA185-275; PDZ domain 1 of 1) (human, UniProt P08515 1-218 = GST) (assay: A/G assays).

| Binder | binding result |
| --- | --- |
| Biotin-TSGTGHNQTRALRASESGI [CD97 (CD55L) C-terminal PL peptide AA14L, biotinylated] | no binding |
| Biotin-SPQPDSTDNDDYDDISAA [CD6 C-terminal PL peptide AA6L, biotinylated] | no binding |

These binders were tested against GST-TIAM1 PDZ domain fusion protein (T-lymphoma invasion and metastasis inducing protein 1 AA1001-1088); PDZ 1 … (UniProt P08515 1-218 = GST) (assay: A/G assays).
Chain of GST-TIAM1 PDZ domain fusion protein (T-lymphoma invasion and metastasis inducing protein 1 AA1001-1088); PDZ 1 … (P08515 1-218, tags or fused parts left off): as above

| Binder | binding result |
| --- | --- |
| Biotin-TSGTGHNQTRALRASESGI [CD97 (CD55L) C-terminal PL peptide AA14L, biotinylated] | no binding |
| Biotin-SPQPDSTDNDDYDDISAA [CD6 C-terminal PL peptide AA6L, biotinylated] | no binding |

The binders below were run against GST-DVL1 PDZ domain fusion protein (human dishevelled segment polarity protein homolog AA248-340); PDZ domain … (human, UniProt P08515 1-218 = GST) (assay: A/G assays).
Chain of GST-DVL1 PDZ domain fusion protein (human dishevelled segment polarity protein homolog AA248-340); PDZ domain … (P08515 1-218, tags or fused parts left off): as above

| Binder | binding result |
| --- | --- |
| Biotin-TSGTGHNQTRALRASESGI [CD97 (CD55L) C-terminal PL peptide AA14L, biotinylated] | no binding |
| Biotin-SPQPDSTDNDDYDDISAA [CD6 C-terminal PL peptide AA6L, biotinylated] | no binding |

These binders were tested against T4, GST-CASK PDZ domain fusion protein (CASK AA495-584; PDZ domain 1 of 1) (mouse, UniProt P08515 1-218 = GST) (assay: A/G assays).
T4 construct: also called mCASK
T4 sequence (P08515 1-218, tags or fused parts left off): as above

| Binder | binding result |
| --- | --- |
| Biotin-TSGTGHNQTRALRASESGI [CD97 (CD55L) C-terminal PL peptide AA14L, biotinylated] | no binding |
| Biotin-SPQPDSTDNDDYDDISAA [CD6 C-terminal PL peptide AA6L, biotinylated] | no binding |

Each binder was assayed against GST-MPP1 PDZ domain fusion protein (55 Kd erythrocyte membrane protein AA101-186; PDZ domain 1 of 1) (UniProt P08515 1-218 = GST) (assay: A/G assays).

| Binder | binding result |
| --- | --- |
| Biotin-TSGTGHNQTRALRASESGI [CD97 (CD55L) C-terminal PL peptide AA14L, biotinylated] | no binding |
| Biotin-SPQPDSTDNDDYDDISAA [CD6 C-terminal PL peptide AA6L, biotinylated] | no binding |

What follows are binders tested against T5, GST-NeDLG PDZ domain fusion protein (presynaptic protein sao102, neuroendocrine-dlg; PDZ domains 1-2 of 3) (UniProt P08515 1-218 = GST) (assay: A/G assays).
T5 construct: also called NeDLG1
T5 sequence (P08515 1-218, tags or fused parts left off): as above

| Binder | binding result |
| --- | --- |
| Biotin-TSGTGHNQTRALRASESGI [CD97 (CD55L) C-terminal PL peptide AA14L, biotinylated] | no binding |
| Biotin-SPQPDSTDNDDYDDISAA [CD6 C-terminal PL peptide AA6L, biotinylated] | no binding |

The binders below were run against GST-NOS1 PDZ domain fusion protein (human neuronal nitric oxide synthase; PDZ domain 1 of 1) (human, UniProt P08515 1-218 = GST) (assay: A/G assays).
Chain of GST-NOS1 PDZ domain fusion protein (human neuronal nitric oxide synthase; PDZ domain 1 of 1) (P08515 1-218, tags or fused parts left off): as above

| Binder | binding result |
| --- | --- |
| Biotin-TSGTGHNQTRALRASESGI [CD97 (CD55L) C-terminal PL peptide AA14L, biotinylated] | no binding |
| Biotin-SPQPDSTDNDDYDDISAA [CD6 C-terminal PL peptide AA6L, biotinylated] | no binding |

These binders were tested against T6, GST-TAX2 PDZ domain fusion protein (human tax interaction protein 2 AA54-140; PDZ domain 1 of 1) (human, UniProt P08515 1-218 = GST) (assay: A/G assays).
T6 construct: also called TX 2
T6 sequence (P08515 1-218, tags or fused parts left off): as above

| Binder | binding result |
| --- | --- |
| Biotin-TSGTGHNQTRALRASESGI [CD97 (CD55L) C-terminal PL peptide AA14L, biotinylated] | no binding |
| Biotin-SPQPDSTDNDDYDDISAA [CD6 C-terminal PL peptide AA6L, biotinylated] | no binding |

What follows are binders tested against T7, GST-TAX40 PDZ domain fusion protein (human tax interaction protein 40 AA35-137; PDZ domain 1 of 1) (human, UniProt P08515 1-218 = GST) (assay: A/G assays).
T7 construct: also called TX 40
T7 sequence (P08515 1-218, tags or fused parts left off): as above

| Binder | binding result |
| --- | --- |
| Biotin-TSGTGHNQTRALRASESGI [CD97 (CD55L) C-terminal PL peptide AA14L, biotinylated] | no binding |
| Biotin-SPQPDSTDNDDYDDISAA [CD6 C-terminal PL peptide AA6L, biotinylated] | no binding |

The binders below were run against GST-MINT3 PDZ domain fusion protein (human MINT3 AA11-52; PDZ domain 1 of 1) (human, UniProt P08515 1-218 = GST) (assay: A/G assays).
Chain of GST-MINT3 PDZ domain fusion protein (human MINT3 AA11-52; PDZ domain 1 of 1) (P08515 1-218, tags or fused parts left off): as above

| Binder | binding result |
| --- | --- |
| Biotin-TSGTGHNQTRALRASESGI [CD97 (CD55L) C-terminal PL peptide AA14L, biotinylated] | no binding |
| Biotin-SPQPDSTDNDDYDDISAA [CD6 C-terminal PL peptide AA6L, biotinylated] | no binding |

Each binder was assayed against T8, GST-RGS12 PDZ domain fusion protein (human regulator of G-protein signalling 12 AA35-103; PDZ domain 1 of 1) (human, UniProt P08515 1-218 = GST) (assay: A/G assays).
T8 construct: also called RSG12
T8 sequence (P08515 1-218, tags or fused parts left off): as above

| Binder | binding result |
| --- | --- |
| Biotin-TSGTGHNQTRALRASESGI [CD97 (CD55L) C-terminal PL peptide AA14L, biotinylated] | no binding |
| Biotin-SPQPDSTDNDDYDDISAA [CD6 C-terminal PL peptide AA6L, biotinylated] | no binding |

The binders below were run against T9, GST-TAX33 PDZ domain fusion protein (tax interaction protein 33 AA73-162; PDZ domain 1 of 1) (UniProt P08515 1-218 = GST) (assay: A/G assays).
T9 construct: also called TX33
T9 sequence (P08515 1-218, tags or fused parts left off): as above

| Binder | binding result |
| --- | --- |
| Biotin-TSGTGHNQTRALRASESGI [CD97 (CD55L) C-terminal PL peptide AA14L, biotinylated] | no binding |
| Biotin-SPQPDSTDNDDYDDISAA [CD6 C-terminal PL peptide AA6L, biotinylated] | no binding |

The binders below were run against GST-PSD95 PDZ domain fusion protein (human post-synaptic density protein 95 AA387-724; PDZ domains 1-3 of 3) (human, UniProt P08515 1-218 = GST) (assay: A/G assays).

| Binder | binding result |
| --- | --- |
| Biotin-TSGTGHNQTRALRASESGI [CD97 (CD55L) C-terminal PL peptide AA14L, biotinylated] | no binding |
| Biotin-SPQPDSTDNDDYDDISAA [CD6 C-terminal PL peptide AA6L, biotinylated] | no binding |

The binders below were run against T10, GST-KIAA0316 PDZ domain fusion protein (KIAA0316 AA197-284; PDZ domain 1 of 1) (UniProt P08515 1-218 = GST) (assay: A/G assays).
T10 construct: also called K316
T10 sequence (P08515 1-218, tags or fused parts left off): as above

| Binder | binding result |
| --- | --- |
| Biotin-TSGTGHNQTRALRASESGI [CD97 (CD55L) C-terminal PL peptide AA14L, biotinylated] | no binding |
| Biotin-SPQPDSTDNDDYDDISAA [CD6 C-terminal PL peptide AA6L, biotinylated] | no binding |

Each binder was assayed against T11, GST-KIAA0303 PDZ domain fusion protein (KIAA0303 AA652-742; PDZ domain 1 of 1) (UniProt P08515 1-218 = GST) (assay: A/G assays).
T11 construct: also called K303

| Binder | binding result |
| --- | --- |
| Biotin-TSGTGHNQTRALRASESGI [CD97 (CD55L) C-terminal PL peptide AA14L, biotinylated] | no binding |
| Biotin-SPQPDSTDNDDYDDISAA [CD6 C-terminal PL peptide AA6L, biotinylated] | no binding |

Each binder was assayed against GST-PTN-4 PDZ domain fusion protein (protein-tyrosine phosphatase meg1 AA774-862; PDZ domain 1 of 1) (UniProt P08515 1-218 = GST) (assay: A/G assays).
Chain of GST-PTN-4 PDZ domain fusion protein (protein-tyrosine phosphatase meg1 AA774-862; PDZ domain 1 of 1) (P08515 1-218, tags or fused parts left off): as above

| Binder | binding result |
| --- | --- |
| Biotin-TSGTGHNQTRALRASESGI [CD97 (CD55L) C-terminal PL peptide AA14L, biotinylated] | no binding |
| Biotin-SPQPDSTDNDDYDDISAA [CD6 C-terminal PL peptide AA6L, biotinylated] | no binding |

Each binder was assayed against T12, GST-KIAA0559 PDZ domain fusion protein (KIAA0559 AA766-870; PDZ1 of 1) (UniProt P08515 1-218 = GST) (assay: A/G assays).
T12 construct: also called K559
T12 sequence (P08515 1-218, tags or fused parts left off): as above

| Binder | binding result |
| --- | --- |
| Biotin-TSGTGHNQTRALRASESGI [CD97 (CD55L) C-terminal PL peptide AA14L, biotinylated] | no binding |
| Biotin-SPQPDSTDNDDYDDISAA [CD6 C-terminal PL peptide AA6L, biotinylated] | no binding |

Each binder was assayed against T13, GST-SYN1a PDZ domain fusion protein (alpha1-syntrophin AA96-189; PDZ domain 1 of 1) (UniProt P08515 1-218 = GST) (assay: A/G assays).
T13 construct: also called SYN 1 alpha; SYNTR 1 alpha
T13 sequence (P08515 1-218, tags or fused parts left off): as above

| Binder | binding result |
| --- | --- |
| Biotin-TSGTGHNQTRALRASESGI [CD97 (CD55L) C-terminal PL peptide AA14L, biotinylated] | no binding |
| Biotin-SPQPDSTDNDDYDDISAA [CD6 C-terminal PL peptide AA6L, biotinylated] | no binding |

What follows are binders tested against GST-LIM PDZ domain fusion protein (Human LIM protein AA29-112; PDZ domain 1 of 1) (human, UniProt P08515 1-218 = GST) (assay: A/G assays).
Chain of GST-LIM PDZ domain fusion protein (Human LIM protein AA29-112; PDZ domain 1 of 1) (P08515 1-218, tags or fused parts left off): as above

| Binder | binding result |
| --- | --- |
| Biotin-TSGTGHNQTRALRASESGI [CD97 (CD55L) C-terminal PL peptide AA14L, biotinylated] | no binding |
| Biotin-SPQPDSTDNDDYDDISAA [CD6 C-terminal PL peptide AA6L, biotinylated] | no binding |

These binders were tested against T14, GST-41.8 kD PDZ domain fusion protein (hypothetical 41.8 kD protein AA4-85; PDZ domain 1 of 1) (UniProt P08515 1-218 = GST) (assay: A assay).
T14 construct: also called hypoth
T14 sequence (P08515 1-218, tags or fused parts left off): as above

| Binder | binding result |
| --- | --- |
| Biotin-TSGTGHNQTRALRASESGI [CD97 (CD55L) C-terminal PL peptide AA14L, biotinylated] | binds |
| Biotin-SPQPDSTDNDDYDDISAA [CD6 C-terminal PL peptide AA6L, biotinylated] | binds |
